US12630600B2 (MEDIMMUNE LIMITED, priority 2022, dated 2026)
Starred links: 1 amine or outer side, 2 acyl side, 3 side chain; linkers in the order of their positions; H or OH if unused. Non-standard residues stand in square brackets, D forms with d. Groups on a side chain read outwards from the residue. No end group written: not given here. *: point of attachment. C20 diacid = O=C(O)CCCCCCCCCCCCCCCCCCC(=O)*; C18 diacid = O=C(O)CCCCCCCCCCCCCCCCC(=O)*; γGlu = O=C(O)[C@H](CCC(=O)[*:2])N[*:1]; αMeF = C[C@](N)(Cc1ccccc1)C(=O)O; AEEA = NCCOCCOCC(=O)O; Aib = CC(C)(N)C(=O)O

Assays:
[1] = biological target: human GLP-1 receptor (human, UniProt P43220); experiment: cell-based or functional assay
[2] = biological target: human glucagon receptor (human, UniProt P47871); experiment: cell-based or functional assay

Row | Binder | cAMP production EC50 [1] | cAMP production EC50 [2]
1 | H[Aib]QGTFTSDVSK[αMeF]LDTK([AEEA-AEEA-γGlu-C20 diacid])AARDFVQWLLE[Aib]G-NH2 (N-terminus assumed; SMILES CC(C)C[C@H](NC(=O)[C@H](Cc1c[nH]c2ccccc12)NC(=O)[C@H](CCC(N)=O)NC(=O)[C@@H](NC(=O)[C@H](Cc1ccccc1)NC(=O)[C@H](CC(=O)O)NC(=O)[C@H](CCCNC(=N)N)NC(=O)[C@H](C)NC(=O)[C@H](C)NC(=O)[C@H](CCCCNC(=O)COCCOCCNC(=O)COCCOCCNC(=O)CC[C@H](NC(=O)CCCCCCCCCCCCCCCCCCC(=O)O)C(=O)O)NC(=O)[C@@H](NC(=O)[C@H](CC(=O)O)NC(=O)[C@H](CC(C)C)NC(=O)[C@](C)(Cc1ccccc1)NC(=O)[C@H](CCCCN)NC(=O)[C@H](CO)NC(=O)[C@@H](NC(=O)[C@H](CC(=O)O)NC(=O)[C@H](CO)NC(=O)[C@@H](NC(=O)[C@H](Cc1ccccc1)NC(=O)[C@@H](NC(=O)CNC(=O)[C@H](CCC(N)=O)NC(=O)C(C)(C)NC(=O)[C@@H](N)Cc1c[nH]cn1)[C@@H](C)O)[C@@H](C)O)C(C)C)[C@@H](C)O)C(C)C)C(=O)N[C@@H](CC(C)C)C(=O)N[C@@H](CCC(=O)O)C(=O)NC(C)(C)C(=O)NCC(N)=O) [Peptide 515] | 0.297 nM | 2.66 nM
2 | H[Aib]QGTFTSDVSK[αMeF]LDSK([γGlu-γGlu-AEEA-AEEA-γGlu-γGlu-C18 diacid])RARDFVRWLLE[Aib]G-OH (N-terminus assumed; SMILES CC(C)C[C@H](NC(=O)[C@H](Cc1c[nH]c2ccccc12)NC(=O)[C@H](CCCNC(=N)N)NC(=O)[C@@H](NC(=O)[C@H](Cc1ccccc1)NC(=O)[C@H](CC(=O)O)NC(=O)[C@H](CCCNC(=N)N)NC(=O)[C@H](C)NC(=O)[C@H](CCCNC(=N)N)NC(=O)[C@H](CCCCNC(=O)CC[C@H](NC(=O)CC[C@H](NC(=O)COCCOCCNC(=O)COCCOCCNC(=O)CC[C@H](NC(=O)CC[C@H](NC(=O)CCCCCCCCCCCCCCCCC(=O)O)C(=O)O)C(=O)O)C(=O)O)C(=O)O)NC(=O)[C@H](CO)NC(=O)[C@H](CC(=O)O)NC(=O)[C@H](CC(C)C)NC(=O)[C@](C)(Cc1ccccc1)NC(=O)[C@H](CCCCN)NC(=O)[C@H](CO)NC(=O)[C@@H](NC(=O)[C@H](CC(=O)O)NC(=O)[C@H](CO)NC(=O)[C@@H](NC(=O)[C@H](Cc1ccccc1)NC(=O)[C@@H](NC(=O)CNC(=O)[C@H](CCC(N)=O)NC(=O)C(C)(C)NC(=O)[C@@H](N)Cc1c[nH]cn1)[C@@H](C)O)[C@@H](C)O)C(C)C)C(C)C)C(=O)N[C@@H](CC(C)C)C(=O)N[C@@H](CCC(=O)O)C(=O)NC(C)(C)C(=O)NCC(=O)O) [Peptide 136] | 0.0452 nM | 0.509 nM
3 | H[Aib]QGTFTSDVSK[αMeF]LEAK([AEEA-AEEA-γGlu-γGlu-C18 diacid])AAREFIAWLLET-NH2 (N-terminus assumed; SMILES CC[C@H](C)[C@H](NC(=O)[C@H](Cc1ccccc1)NC(=O)[C@H](CCC(=O)O)NC(=O)[C@H](CCCNC(=N)N)NC(=O)[C@H](C)NC(=O)[C@H](C)NC(=O)[C@H](CCCCNC(=O)COCCOCCNC(=O)COCCOCCNC(=O)CC[C@H](NC(=O)CC[C@H](NC(=O)CCCCCCCCCCCCCCCCC(=O)O)C(=O)O)C(=O)O)NC(=O)[C@H](C)NC(=O)[C@H](CCC(=O)O)NC(=O)[C@H](CC(C)C)NC(=O)[C@](C)(Cc1ccccc1)NC(=O)[C@H](CCCCN)NC(=O)[C@H](CO)NC(=O)[C@@H](NC(=O)[C@H](CC(=O)O)NC(=O)[C@H](CO)NC(=O)[C@@H](NC(=O)[C@H](Cc1ccccc1)NC(=O)[C@@H](NC(=O)CNC(=O)[C@H](CCC(N)=O)NC(=O)C(C)(C)NC(=O)[C@@H](N)Cc1c[nH]cn1)[C@@H](C)O)[C@@H](C)O)C(C)C)C(=O)N[C@@H](C)C(=O)N[C@@H](Cc1c[nH]c2ccccc12)C(=O)N[C@@H](CC(C)C)C(=O)N[C@@H](CC(C)C)C(=O)N[C@@H](CCC(=O)O)C(=O)N[C@H](C(N)=O)[C@@H](C)O) [Peptide 517] | 0.146 nM | 0.738 nM

More lines, now with the values ahead:

Row | cAMP production EC50 [1] | cAMP production EC50 [2] | Binder
4 | 0.176 nM | 0.118 nM | H[Aib]QGTFTSDVSK[αMeF]LDTK([AEEA-AEEA-γGlu-C20 diacid])RARDFVRWLL[Aib]E-OH (N-terminus assumed; SMILES CC(C)C[C@H](NC(=O)[C@H](Cc1c[nH]c2ccccc12)NC(=O)[C@H](CCCNC(=N)N)NC(=O)[C@@H](NC(=O)[C@H](Cc1ccccc1)NC(=O)[C@H](CC(=O)O)NC(=O)[C@H](CCCNC(=N)N)NC(=O)[C@H](C)NC(=O)[C@H](CCCNC(=N)N)NC(=O)[C@H](CCCCNC(=O)COCCOCCNC(=O)COCCOCCNC(=O)CC[C@H](NC(=O)CCCCCCCCCCCCCCCCCCC(=O)O)C(=O)O)NC(=O)[C@@H](NC(=O)[C@H](CC(=O)O)NC(=O)[C@H](CC(C)C)NC(=O)[C@](C)(Cc1ccccc1)NC(=O)[C@H](CCCCN)NC(=O)[C@H](CO)NC(=O)[C@@H](NC(=O)[C@H](CC(=O)O)NC(=O)[C@H](CO)NC(=O)[C@@H](NC(=O)[C@H](Cc1ccccc1)NC(=O)[C@@H](NC(=O)CNC(=O)[C@H](CCC(N)=O)NC(=O)C(C)(C)NC(=O)[C@@H](N)Cc1c[nH]cn1)[C@@H](C)O)[C@@H](C)O)C(C)C)[C@@H](C)O)C(C)C)C(=O)N[C@@H](CC(C)C)C(=O)NC(C)(C)C(=O)N[C@@H](CCC(=O)O)C(=O)O) [Peptide 510]
5 | 0.0938 nM | 1.34 nM | H[Aib]QGT[αMeF]TSDVSK[αMeF]LDTK([AEEA-AEEA-γGlu-C18 diacid])RARD[αMeF]VQWLLA[Aib]G-NH2 (N-terminus assumed; SMILES CC(C)C[C@H](NC(=O)[C@H](CC(C)C)NC(=O)[C@H](Cc1c[nH]c2ccccc12)NC(=O)[C@H](CCC(N)=O)NC(=O)[C@@H](NC(=O)[C@](C)(Cc1ccccc1)NC(=O)[C@H](CC(=O)O)NC(=O)[C@H](CCCNC(=N)N)NC(=O)[C@H](C)NC(=O)[C@H](CCCNC(=N)N)NC(=O)[C@H](CCCCNC(=O)COCCOCCNC(=O)COCCOCCNC(=O)CC[C@H](NC(=O)CCCCCCCCCCCCCCCCC(=O)O)C(=O)O)NC(=O)[C@@H](NC(=O)[C@H](CC(=O)O)NC(=O)[C@H](CC(C)C)NC(=O)[C@](C)(Cc1ccccc1)NC(=O)[C@H](CCCCN)NC(=O)[C@H](CO)NC(=O)[C@@H](NC(=O)[C@H](CC(=O)O)NC(=O)[C@H](CO)NC(=O)[C@@H](NC(=O)[C@](C)(Cc1ccccc1)NC(=O)[C@@H](NC(=O)CNC(=O)[C@H](CCC(N)=O)NC(=O)C(C)(C)NC(=O)[C@@H](N)Cc1c[nH]cn1)[C@@H](C)O)[C@@H](C)O)C(C)C)[C@@H](C)O)C(C)C)C(=O)N[C@@H](C)C(=O)NC(C)(C)C(=O)NCC(N)=O) [Peptide 513]
6 | 0.0767 nM | 1.37 nM | H[Aib]QGTFTSDVSK[αMeF]LDTK([AEEA-AEEA-γGlu-C18 diacid])AARDFVQWLLE[Aib]G-NH2 (N-terminus assumed; SMILES CC(C)C[C@H](NC(=O)[C@H](Cc1c[nH]c2ccccc12)NC(=O)[C@H](CCC(N)=O)NC(=O)[C@@H](NC(=O)[C@H](Cc1ccccc1)NC(=O)[C@H](CC(=O)O)NC(=O)[C@H](CCCNC(=N)N)NC(=O)[C@H](C)NC(=O)[C@H](C)NC(=O)[C@H](CCCCNC(=O)COCCOCCNC(=O)COCCOCCNC(=O)CC[C@H](NC(=O)CCCCCCCCCCCCCCCCC(=O)O)C(=O)O)NC(=O)[C@@H](NC(=O)[C@H](CC(=O)O)NC(=O)[C@H](CC(C)C)NC(=O)[C@](C)(Cc1ccccc1)NC(=O)[C@H](CCCCN)NC(=O)[C@H](CO)NC(=O)[C@@H](NC(=O)[C@H](CC(=O)O)NC(=O)[C@H](CO)NC(=O)[C@@H](NC(=O)[C@H](Cc1ccccc1)NC(=O)[C@@H](NC(=O)CNC(=O)[C@H](CCC(N)=O)NC(=O)C(C)(C)NC(=O)[C@@H](N)Cc1c[nH]cn1)[C@@H](C)O)[C@@H](C)O)C(C)C)[C@@H](C)O)C(C)C)C(=O)N[C@@H](CC(C)C)C(=O)N[C@@H](CCC(=O)O)C(=O)NC(C)(C)C(=O)NCC(N)=O) [Peptide 514]
7 | 0.159 nM | 2.31 nM | H[Aib]QGT[αMeF]TSDVSK[αMeF]LDTK([AEEA-AEEA-γGlu-C18 diacid])RAQD[αMeF]VRWLLA[Aib]G-NH2 (N-terminus assumed; SMILES CC(C)C[C@H](NC(=O)[C@H](CC(C)C)NC(=O)[C@H](Cc1c[nH]c2ccccc12)NC(=O)[C@H](CCCNC(=N)N)NC(=O)[C@@H](NC(=O)[C@](C)(Cc1ccccc1)NC(=O)[C@H](CC(=O)O)NC(=O)[C@H](CCC(N)=O)NC(=O)[C@H](C)NC(=O)[C@H](CCCNC(=N)N)NC(=O)[C@H](CCCCNC(=O)COCCOCCNC(=O)COCCOCCNC(=O)CC[C@H](NC(=O)CCCCCCCCCCCCCCCCC(=O)O)C(=O)O)NC(=O)[C@@H](NC(=O)[C@H](CC(=O)O)NC(=O)[C@H](CC(C)C)NC(=O)[C@](C)(Cc1ccccc1)NC(=O)[C@H](CCCCN)NC(=O)[C@H](CO)NC(=O)[C@@H](NC(=O)[C@H](CC(=O)O)NC(=O)[C@H](CO)NC(=O)[C@@H](NC(=O)[C@](C)(Cc1ccccc1)NC(=O)[C@@H](NC(=O)CNC(=O)[C@H](CCC(N)=O)NC(=O)C(C)(C)NC(=O)[C@@H](N)Cc1c[nH]cn1)[C@@H](C)O)[C@@H](C)O)C(C)C)[C@@H](C)O)C(C)C)C(=O)N[C@@H](C)C(=O)NC(C)(C)C(=O)NCC(N)=O) [Peptide 512]
